Here are results for four molecules from patent US20240052042A1 (Novartis, published 2024).

Experiment [1] addresses T1, human NPR1 on CHO-K1 cells (human, UniProt P16066 33-1061).
T1 sequence: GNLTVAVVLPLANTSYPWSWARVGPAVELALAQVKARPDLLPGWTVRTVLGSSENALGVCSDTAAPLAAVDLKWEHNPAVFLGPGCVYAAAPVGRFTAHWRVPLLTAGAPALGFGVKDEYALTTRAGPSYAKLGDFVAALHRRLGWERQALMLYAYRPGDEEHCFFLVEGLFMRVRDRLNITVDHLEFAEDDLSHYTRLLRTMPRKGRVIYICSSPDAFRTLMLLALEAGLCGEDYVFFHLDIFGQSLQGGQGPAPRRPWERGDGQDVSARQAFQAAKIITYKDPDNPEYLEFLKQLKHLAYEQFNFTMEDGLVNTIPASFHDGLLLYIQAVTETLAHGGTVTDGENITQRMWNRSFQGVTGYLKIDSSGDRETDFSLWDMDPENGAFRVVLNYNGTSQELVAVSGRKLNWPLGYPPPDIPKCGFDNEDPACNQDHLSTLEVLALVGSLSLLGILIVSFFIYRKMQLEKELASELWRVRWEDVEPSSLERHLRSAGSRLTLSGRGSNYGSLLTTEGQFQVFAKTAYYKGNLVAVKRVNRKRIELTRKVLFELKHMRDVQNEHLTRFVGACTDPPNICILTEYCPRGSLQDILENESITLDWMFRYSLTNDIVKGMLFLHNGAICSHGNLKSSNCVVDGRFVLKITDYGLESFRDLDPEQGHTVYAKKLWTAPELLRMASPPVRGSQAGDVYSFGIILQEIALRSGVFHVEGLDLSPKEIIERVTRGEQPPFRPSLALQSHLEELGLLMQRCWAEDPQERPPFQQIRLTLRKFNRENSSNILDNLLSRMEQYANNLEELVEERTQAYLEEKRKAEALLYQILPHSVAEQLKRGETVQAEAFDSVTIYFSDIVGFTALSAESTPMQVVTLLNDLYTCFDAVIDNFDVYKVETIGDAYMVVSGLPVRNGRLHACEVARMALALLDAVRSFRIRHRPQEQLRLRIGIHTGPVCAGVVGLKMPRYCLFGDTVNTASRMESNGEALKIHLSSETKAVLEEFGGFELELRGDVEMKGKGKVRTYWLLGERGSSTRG
The experiment can be described thus: cell-based or functional assay.

Experiment [2] deals with T2, human Natriuretic Peptide Receptor 1 (hNPR1) (human, UniProt P16066 33-473, limits assumed).
T2 construct: pannings used NPR1-hFc; also called NPR1-hFc
T2 sequence: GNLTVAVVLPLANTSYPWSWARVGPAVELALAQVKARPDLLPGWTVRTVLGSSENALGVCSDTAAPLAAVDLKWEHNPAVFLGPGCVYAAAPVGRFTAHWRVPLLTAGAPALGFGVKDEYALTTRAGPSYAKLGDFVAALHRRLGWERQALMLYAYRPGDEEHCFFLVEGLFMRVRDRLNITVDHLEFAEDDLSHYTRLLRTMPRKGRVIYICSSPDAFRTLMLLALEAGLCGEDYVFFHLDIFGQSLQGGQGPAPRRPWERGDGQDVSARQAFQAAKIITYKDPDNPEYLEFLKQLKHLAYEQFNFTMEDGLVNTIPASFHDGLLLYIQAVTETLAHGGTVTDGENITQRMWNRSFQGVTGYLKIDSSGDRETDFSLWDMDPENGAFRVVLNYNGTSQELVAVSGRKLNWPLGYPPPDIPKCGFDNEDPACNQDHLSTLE
The experiment in a line: FabCys affinity determination.

Experiment [3] deals with T3, hNPR1-ANP complex (human, UniProt P01160 124-151, limits assumed).
T3 construct: hNPR1 antigen in the presence of ANP; also called hNPR1 + 100 nM ANP
T3 sequence: T2 sequence
T3 sequence (peptide): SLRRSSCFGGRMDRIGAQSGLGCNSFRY
The experiment can be described thus: FabCys affinity determination.

Experiment [4] deals with T2, human Natriuretic Peptide Receptor 1 …. The experiment can be described thus: FabCys, parental value as in Table 14 (no method comment).
Experiment [5] addresses T3, hNPR1-ANP complex. The experiment is described as above.
Experiment [6] concerns the target T3, hNPR1-ANP complex. The experiment in a line: FabCys affinity (Octet per Table 18 comment). (BLI is a label-free optical method that tracks binding on a fibre tip over time.)
Experiment [7] addresses T4, rNPR1-ANP complex (rat, UniProt P01160 124-151 (human entry), limits assumed).
T4 construct: rNPR1 antigen in the presence of ANP; also called rNPR1 + 100 nM ANP
T4 sequence: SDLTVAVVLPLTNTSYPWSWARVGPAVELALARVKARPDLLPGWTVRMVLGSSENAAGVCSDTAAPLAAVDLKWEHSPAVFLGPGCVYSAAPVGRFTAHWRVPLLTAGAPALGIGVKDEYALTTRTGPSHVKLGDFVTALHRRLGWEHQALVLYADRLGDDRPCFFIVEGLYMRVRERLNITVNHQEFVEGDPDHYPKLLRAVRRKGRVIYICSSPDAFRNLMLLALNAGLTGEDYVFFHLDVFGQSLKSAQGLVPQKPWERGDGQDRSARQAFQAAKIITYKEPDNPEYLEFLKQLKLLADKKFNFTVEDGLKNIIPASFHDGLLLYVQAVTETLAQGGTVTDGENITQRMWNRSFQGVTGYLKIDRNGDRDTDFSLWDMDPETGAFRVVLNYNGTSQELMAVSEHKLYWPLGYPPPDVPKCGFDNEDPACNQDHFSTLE
T4 sequence (peptide): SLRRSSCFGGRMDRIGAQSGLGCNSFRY
The experiment in a line: FabCys affinity (Octet per Table 18 comment).

Experiment [8] has as its target T3, hNPR1-ANP complex. The experiment in a line: Octet, FabCys; comment: Heterogenous binding.
Experiment [9] concerns the target T4, rNPR1-ANP complex. The experiment in a line: Octet, FabCys; comment: Heterogenous binding.
Experiment [10] has as its target T3, hNPR1-ANP complex. The experiment can be described thus: FabCys, parental value by Octet (table comment), as in Table 14.
The target of experiment [11] is T4, rNPR1-ANP complex. The description is as above.
Experiment [12] deals with T2, human Natriuretic Peptide Receptor 1 …. The experiment can be described thus: Octet, FabCys.
The target of experiment [13] is T3, hNPR1-ANP complex. The experiment in a line: Octet, FabCys.
Experiment [14] addresses T5, rat NPR1 (rNPR1) (rat, UniProt P18910 29-469, limits assumed).
T5 construct: Soluble antigen
T5 sequence: T4 sequence
The experiment can be described thus: Octet, FabCys.

Experiment [15] has as its target T4, rNPR1-ANP complex. The experiment can be described thus: Octet, FabCys.
For experiment [16], the target named is T2, human Natriuretic Peptide Receptor 1 …. The experiment in a line: FabCys affinity (Octet per Table 18 comment).
The target in experiment [17] is T5, rat NPR1 (rNPR1). The experiment in a line: FabCys affinity (Octet per Table 18 comment).
For experiment [18], the target named is T2, human Natriuretic Peptide Receptor 1 …. The experiment can be described thus: FabCys, parental value by Octet (table comment), as in Table 14.
The target of experiment [19] is T5, rat NPR1 (rNPR1). Described as above.
Experiment [20] deals with T3, hNPR1-ANP complex. The experiment can be described thus: ELISA, IgG. (An ELISA detects its analyte on a solid surface through an enzyme-linked reagent.)
Experiment [21] addresses T6, human NPR1 on CHO-K1 cells in the presence of ANP (human, UniProt P01160 124-151).
T6 construct: also called hNPR1 CHO K1 + 100 nM ANP
T6 sequence: T1 sequence
T6 sequence (peptide): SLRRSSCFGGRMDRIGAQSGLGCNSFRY
The experiment can be described thus: flow cytometry, hNPR1 CHO-K1 cells, IgG. (In flow cytometry, cells or beads pass a laser one at a time.)

The target in experiment [22] is T1, human NPR1 on CHO-K1 cells. The experiment in a line: flow cytometry, hNPR1 CHO-K1 cells, IgG.
Experiment [23] has as its target T6, human NPR1 on CHO-K1 cells in the …. The experiment in a line: flow cytometry (FL2-H) on hNPR1 CHO-K1 cells with saturating ANP, IgG titrated; control parental CHO-K1 [panel WW01].

B1: YY07 (FabCys format) (Fab, V domains shown)
VH: EVQLVQSGAEVKKPGESLKISCKGSGYSFTSYWISWVRQMPGKGLEWMGIIYPGTSYTRYSPSFQGQVTISADKSISTAYLQWSSLKASDTAMYYCARGSLPGLLGFDHWGQGTLVTVSS
VL: QSVLTQPPSVSGAPGQRVTISCTGSSSNIGAGYDVHWYQQLPGTAPKLLIYGNSNRPNGVPDRFSGSKSGTSASLAITGLQAEDEADYYCQSYDSPTSSSVFGGGTKLTVL
notes: Monovalent FabCys
As usually defined, the Kd is the free concentration of one partner at which half of the binding sites on the other are occupied at equilibrium, for simple one-to-one binding. On to B1, for which, in [1], the “cGMP conc [nM] at 1 µM FabCys, +0.075 nM ANP” value (“cGMP conc [nM] … +0.075 nM ANP” below) turned out to be 88 nM. Further, the “cGMP conc [nM] at 1 µM FabCys, without ANP” value (from here on “cGMP conc [nM] … without ANP”) in experiment [1] was 77 nM. The Kd came out at 1.8 nM in experiment [2], 590 nM with hNPR1-ANP complex [3], 1.8 nM in experiment [4] and 590 nM with hNPR1-ANP complex [5].

B2: YY01 (FabCys format) (Fab, V domains shown)
VH: EVQLVESGGGLVQPGGSLRLSCAASGFTFSSYWISWVRQAPGKGLEWVANIKQSGSETYYVESVKGRFTISRDNAKNSLYLQMNSLRAEDTAVYYCARSLRRRSTEHAGFDVWGQGTLVTVSS
VL: DIQMTQSPSSLSASVGDRVTITCRASQGISNYLAWYQQKPGKVPKLLIYAASTLQSGVPSRFSGSGSGTDFTLTISSLQPEDVATYYCQQADKFPYTFGQGTKVEIK
notes: Monovalent FabCys
Consider B2, for which, in experiment [1], the “cGMP conc [nM] … +0.075 nM ANP” value stood at 46 nM. Moreover, the “cGMP conc [nM] … without ANP” value in experiment [1] was 15 nM. The Kd in the experiment with hNPR1-ANP complex [6] stood at 16 nM; with rNPR1-ANP complex [7] it was 14 nM; in the experiment with hNPR1-ANP complex [8], 26 nM; with rNPR1-ANP complex [9], 8.8 nM; with hNPR1-ANP complex [10], 16 nM; with rNPR1-ANP complex [11] it was 14 nM.

B3: YY06 (FabCys format) (Fab, V domains shown)
VH: EVQLLESGGGLVQPGGSLRLSCAASGFTFSSYAISWVRQAPGKGLEWVSAISGSGGSTYYAESVKGRFTISRDNSKNTLYLQMNSLRAEDTAVYYCARPYLGDRRSYGFDHWGQGTLVTVSS
VL: QSALTQPASVSGSPGQSITISCTGTSSDVGSYNLVSWYQQHPGKAPKLMIYEGSKRPSGVSNRFSGSKSGNTASLTISGLQAEDEADYYCSSYGFHIVVVVFGGGTKLTVL
notes: Monovalent FabCys
Regarding B3, the Kd is 0.62 nM in experiment [12]; 0.8 nM with hNPR1-ANP complex [13]; 100 nM in the experiment with rat NPR1 (rNPR1) [14]; 38 nM with rNPR1-ANP complex [15]; 0.5 nM in experiment [16]; 1 nM with hNPR1-ANP complex [6]. Moreover, the Kd with rat NPR1 (rNPR1) [17] came to 1600 nM; in the experiment with rNPR1-ANP complex [7], 1400 nM; in experiment [18], 0.5 nM; in the experiment with hNPR1-ANP complex [10], 1 nM; with rat NPR1 (rNPR1) [19] it was 1600 nM; in the experiment with rNPR1-ANP complex [11] it was 1400 nM. For the same molecule, in experiment [1], the “cGMP conc [nM] … +0.075 nM ANP” value came out at 75 nM. In [1], the “cGMP conc [nM] … without ANP” value was 20 nM.

B4: WW01 (IgG format) (antibody, V domains shown)
VH: QVQLLESGGGLVQPGGSLRLSCAASGFTFNTHYIHWVRQAPGKGLEWVSSISGSGSNTYYADSVKGRFTISRDNSKNTLYLQMNSLRAEDTAVYYCARERGYVYYHMFDPWGQGTLVTVSS
VL: DIVLTQSPATLSLSPGERATLSCRASQSITRNYLAWYQQKPGQAPRLLIYGASSRATGIPARFSGSGSGTDFTLTISSLEPEDFAVYYCQQHSMYPRTFGQGTKVEIKR
notes: also called WW01_LALA
A word on the EC50: it is the concentration that produces a half-maximal response. Read a high EC50 as a need for much substance. By EC50 (read off the curve) is commonly meant the concentration needed to bring the measured effect to its halfway point. Take B4: the EC50 with hNPR1-ANP complex [20] was 1 nM. Moreover, the “flow cytometry S/BG at 2 µM IgG” value was 222 S/BG in experiment [21] and 19.9 S/BG in experiment [22]. For the same molecule, in experiment [23], the “EC50 (read off the curve)” value was about 3 nM.
